Results published in patent US20100278837A1, “Compositions And Methods For Reducing Cancer And Inflammation” (The Regents of the University of California, priority 2009, published 2010).

B1: mouseVCAM-1/humanFc fusion protein (R&D Systems) (Fc fusion, UniProt P29533 25-698, looked up)
chain: FKIEISPEYKTIAQIGDSMALTCSTTGCESPLFSWRTQIDSPLNAKVRTEGSKSVLTMEPVSFENEHSYLCTATCGSGKLERSIHVDIYSFPKDPEIQFSGPLEVGKPVTVKCLAPDIYPVYRLEIDLFKGDQLMNRQEFSSEEMTKSLETKSLEVTFTPVIEDIGKALVCRAKLHIDQIDSTLKERETVKELQVYISPRNTTISVHPSTRLQEGGAVTMTCSSEGLPAPEIFWGRKLDNEVLQLLSGNATLTLIAMRMEDSGVYVCEGVNLIGRDKAEVELVVQEKPFIVDISPGSQVAAQVGDSVVLTCAAIGCDSPSFSWRTQTDSPLNGVVRNEGAKSTLVLSSVGFEDEHSYLCAVTCLQRTLEKRTQVEVYSFPEDPVIKMSGPLVHGRPVTVNCTVPNVYPFDHLEIELLKGETTLMKKYFLEEMGIKSLETKILETTFIPTIEDTGKSLVCLARLHSGEMESEPKQRQSVQPLYVNVAPKETTIWVSPSPILEEGSPVNLTCSSDGIPAPKILWSRQLNNGELQPLSENTTLTFMSTKRDDSGIYVCEGINEAGISRKSVELIIQVSPKDIQLTVFPSKSVKEGDTVIISCTCGNVPETWIILKKKAKTGDMVLKSVDGSYTIRQAQLQDAGIYECESKTEVGSQLRSLTLDVKGKEHNKDYFSPE
notes: Bought reagent; Detected with donkey anti-human-FC-PE; also called VCAM-1/Fc; VCAM-1/FC; not shown: human Fc
B2: murine integrin α4Y991A β1 of CD11b+ myeloid cells from α4Y991A knockin mice (receptor, mouse)
chain 1: YNLDPENALLYQGPSGTLFGYSVVLHSHGSKRWLIVGAPTASWLSNASVVNPGAIYRCGIRKNPNQTCEQLQSGSPSGEPCGKTCLEERDNQWLGVTLSRQPGENGSIVTCGHRWKNIFYMKSDNKLPTGICYVMPSDLRTELSKRMAPCYKDYTRKFGENFASCQAGISSFYTQDLIVMGAPGSSYWTGTVFVYNITTNQYKAFVDRQNQVKFGSYLGYSVGAGHFRSPHTTEVVGGAPQHEQIGKAYIFSIDENELNIVYEMKGKKLGSYFGASVCAVDLNADGFSDLLVGAPMQSTIREEGRVFVYINSGMGAVMVEMERVLVGSDKYAARFGESIANLGDIDNDGFEDIAIGAPQEDDLRGAVYIYNGRVDGISSTYSQRIEGQQISKSLRMFGQSISGQIDADNNGYVDVAVGAFQSDSAVLLRTRPVVIVEASLSHPESVNRTKFDCTENGLPSVCMHLTLCFSYKGKEVPGYIVLFYNVSLDVHRKAESPSRFYFFSNGTSDVITGSIRVSSSGEKCRTHQAFMRKDVRDILTPIHVEATYHLGHHVITKRNTEEFPPLQPILQQKKEKDVIRKMINFARFCAYENCSADLQVSAKVGFLKPYENKTYLAVGSMKTIMLNVSLFNAGDDAYETTLNVQLPTGLYFIKILDLEEKQINCEVTESSGIVKLACSLGYIYVDRLSRIDISFLLDVSSLSRAHEDLSISVHASCENEGELDQVRDNRVTLTIPLRYEVMLTVHGLVNPTSFVYGSSEENEPETCMAEKLNLTFHVINTGISMAPNVSVKIMVPNSFLPQDDKLFNVLDVQTTTGQCHFKHYGRECTFAQQKGIAGTLTDIVKFLSKTDKRLLYCMKADQHCLDFLCNFGKMESGKEASVHIQLEGRPSILEMDETSSLKFEIKATAFPEPHPKVIELNKDENVAHVFLEGLHHQRPKRHFTIIIITISLLLGLIVLLLISCVMWKAGFFKRQYKSILQEENRRDSWSAVNSKSNDD
chain 2: QTDKNRCLKANAKSCGECIQAGPNCGWCTNTTFLQEGMPTSARCDDLEALKKKGCQPSDIENPRGSQTIKKNKNVTNRSKGMAEKLRPEDITQIQPQQLLLKLRSGEPQKFTLKFKRAEDYPIDLYYLMDLSYSMKDDLENVKSLGTDLMNEMRRITSDFRIGFGSFVEKTVMPYISTTPAKLRNPCTSEQNCTSPFSYKNVLSLTDRGEFFNELVGQQRISGNLDSPEGGFDAIMQVAVCGSLIGWRNVTRLLVFSTDAGFHFAGDGKLGGIVLPNDGQCHLENNVYTMSHYYDYPSIAHLVQKLSENNIQTIFAVTEEFQPVYKELKNLIPKSAVGTLSGNSSNVIQLIIDAYNSLSSEVILENSKLPDGVTINYKSYCKNGVNGTGENGRKCSNISIGDEVQFEISITANKCPNKESETIKIKPLGFTEEVEVVLQFICKCNCQSHGIPASPKCHEGNGTFECGACRCNEGRVGRHCECSTDEVNSEDMDAYCRKENSSEICSNNGECVCGQCVCRKRDNTNEIYSGKFCECDNFNCDRSNGLICGGNGVCRCRVCECYPNYTGSACDCSLDTGPCLASNGQICNGRGICECGACKCTDPKFQGPTCETCQTCLGVCAEHKECVQCRAFNKGEKKDTCAQECSHFNLTKVESREKLPQPVQVDPVTHCKEKDIDDCWFYFTYSVNGNNEAIVHVVETPDCPTGPDIIPIVAGVVAGIVLIGLALLLIWKLLMIIHDRREFAKFEKEKMNAKWDTGENPIYKSAVTTVVNPKYEGK
notes: whole, on cells; It may be mature-chain numbering and may not match the precursor entry; also called α4YA; YA

Legend:
[1] = test system: CD11b+ cells adhesion to endothelium; experiment: Adhesion of CD11b+ cells to endothelium (Example 1 adhesion assay); format: cell-based, murine; conditions: SDF-1α, TCM or IL-1β (and other chemoattractant) induced
Protocol: TCM was prepared from serum-free media cultured on LLC cells for 18 h and filtered through 0.22 μm filters. 10^5 calcein-AM labelled human or murine CD11b+ cells in TCM or DMEM containing 200 ng/ml SDF-1α, IL-1β, IL-6, IL-8 or VEGF-A (R&D Systems) were incubated on HUVEC monolayers or on plastic plates coated with 5 μg/ml recombinant soluble VCAM-1 (R&D Systems). Adherent cells were quantified using a fluorescence activated plate reader (GeniosPro, TECAN). In some assays, cells were also incubated in 25 μg/ml anti-integrin α4β1 (PS2 for murine cells and HP2/1 for human cells, gifts from Biogen-Idec) and isotype control antibodies (IgG2bk for murine cells and IgG1 for human cells). In some studies, cells were incubated in 10 μM pan PI3K inhibitors […] or TG020, in PI3kinase α inhibitor PI3K75, PI3kinase γ/δ inhibitor TG115 and an inert control.

integrin α4 = experiment: Integrin α4 clustering in CD11b+ cells; format: cell-based; conditions: SDF-1α or IL-1β induced
Protocol: Activation of human CD29 (integrin β1 chain) in cytokine stimulated human CD11b+ cells was quantified by flow cytometry using HUTS-21 antibodies (BD Bioscience). Total β1 integrin levels were assessed using P4C10 antibodies (Chemicon). 2.5×10^6 freshly isolated human myeloid cells/ml in culture medium containing 5% FBS and 0.5% NaN3 were incubated in 10 μg/ml normal human immunoglobulin (12000C, Caltag) for 45 min on ice, then in 2 μg/ml SDF-1α, IL-1β, IL-6 or 1 mM Mn2+ plus 2.5 μg HUTS21, P4C10, or IgG2 control for 10 min at 37° C. followed by Alexa 488 goat-anti mouse antibodies for 20 min on ice. Expression levels of murine integrin α4 on bone marrow derived cells were determined by flow cytometry for PE-conjugated R1/2 (rat anti-CD49d antibody, eBioscience). To induce integrin α4 activation on human myeloid cells or murine WT and α4Y991A myeloid, purified CD11b+ cells were incubated with polystyrene microspheres (9.0 μm diameter, Bangs Laboratories) coated with TCM, 2 μg/ml SDF-1α or IL-1β overnight at 4° C. cells as previously described by Grabovsky et al., 2000. […] Samples were analyzed by Nikon CS1 spectral confocal on a Nikon TE2000E inverted microscopy. Images were captured using EZ-C13.00 imaging software and analyzed using Metamorph software.

[2] = target: B2; experiment: flow cytometry of VCAM-1/Fc on CD11b+ cells (FIG. 27e)
Protocol: (§1) 5×10⁵ CD11b+ cells isolated from WT, α4Y991A, or PI3-kinase γ−/− mice (naïve or tumour-bearing) were incubated with 200 ng/ml IL-1β, SDF-1α, IL-6, TNFα, VEGF-A or medium together with 1 mg/ml mouseVCAM-1/humanFc fusion protein (R&D Systems) for 3 min. Cells were washed twice and incubated with donkey anti-human-FC-PE antibody (Jackson Immunoresearch) then analysed by FACs Calibur. Mean fluorescence intensity of treated cells was compared to that of unstimulated cells (basal). In other studies, cells from WT mice were untreated or were treated with 1 μM PI3-kinase α, β, or γ inhibitors for 30 min at 37° C. In some experiments GFP/RapV12 or GFP/RasV12 transfected CD11b+ cells were used. In this case, increased mean fluorescence intensity was measured for only GFP-positive cells.

[3] = target: T1, murine integrin α4β1 (wildtype) of CD11b+ myeloid cells (mouse, UniProt Q00651 41-1039; P09055 21-798); experiment: flow cytometry, VCAM-1/Fc on murine CD11b+ cells (FIG. 27e)
T1 construct: whole, on cells; In the co-immunoprecipitations it was precipitated from CHAPS lysates of bone marrow cells with PS/2; also called VLA-4; VLA4
Protocol: as §1

[4] = target: T2, talin (murine, endogenous in bone marrow derived myeloid cells) (mouse, UniProt P26039 1-2541); experiment: co-immunoprecipitation with PS/2, immunoblot (FIG. 3d)
T2 construct: Detected by immunoblot with anti-talin clone TD77
Protocol: BM monocytic cells from WT or α4Y991A mice were isolated as described above and treated with either DMEM or TCM for 30 min at 37° C. Cells were rinsed with cold PBS and lysed in Tris-buffered saline containing 1% CHAPS, 20 mM β-glycerophosphate, 1 mM Na₃VO₄, 5 mM NaF, 100 ng/ml microcystin-LR, and protease inhibitor cocktail. Clarified cell lysates were immunoprecipitated as follows: 1 mg total protein was precleared with 10 μl protein G-conjugated Dynabeads (Invitrogen) for 1 hr with rotation. Cleared lysates were incubated with 5 μg of rat anti-α4β1 (PS/2) antibody overnight, followed by adding 25 μl of protein G-conjugated Dynabeads for 3 h with rotation. Beads were washed three times with 1 ml cold PBS containing protease inhibitor cocktail. Protein precipitates were electrophoresed on 10% SDS-PAGE gels and immunoblotted with anti-integrin α4 (C-20, Santa Cruz Biotechnology), anti-talin (Clone TD77, Chemicon) or anti-paxillin (H-114, Santa Cruz Biotechnology) antibodies. Immune complexes were visualized using an enhanced chemiluminescence detection kit (Pierce).
BM cells (comprised of 80% CD11b+Gr1+ cells) from WT or α4Y991A mice were isolated as described above and treated with either DMEM or TCM for 30 min at 37° C. […]

T2 sequence (P26039 whole entry): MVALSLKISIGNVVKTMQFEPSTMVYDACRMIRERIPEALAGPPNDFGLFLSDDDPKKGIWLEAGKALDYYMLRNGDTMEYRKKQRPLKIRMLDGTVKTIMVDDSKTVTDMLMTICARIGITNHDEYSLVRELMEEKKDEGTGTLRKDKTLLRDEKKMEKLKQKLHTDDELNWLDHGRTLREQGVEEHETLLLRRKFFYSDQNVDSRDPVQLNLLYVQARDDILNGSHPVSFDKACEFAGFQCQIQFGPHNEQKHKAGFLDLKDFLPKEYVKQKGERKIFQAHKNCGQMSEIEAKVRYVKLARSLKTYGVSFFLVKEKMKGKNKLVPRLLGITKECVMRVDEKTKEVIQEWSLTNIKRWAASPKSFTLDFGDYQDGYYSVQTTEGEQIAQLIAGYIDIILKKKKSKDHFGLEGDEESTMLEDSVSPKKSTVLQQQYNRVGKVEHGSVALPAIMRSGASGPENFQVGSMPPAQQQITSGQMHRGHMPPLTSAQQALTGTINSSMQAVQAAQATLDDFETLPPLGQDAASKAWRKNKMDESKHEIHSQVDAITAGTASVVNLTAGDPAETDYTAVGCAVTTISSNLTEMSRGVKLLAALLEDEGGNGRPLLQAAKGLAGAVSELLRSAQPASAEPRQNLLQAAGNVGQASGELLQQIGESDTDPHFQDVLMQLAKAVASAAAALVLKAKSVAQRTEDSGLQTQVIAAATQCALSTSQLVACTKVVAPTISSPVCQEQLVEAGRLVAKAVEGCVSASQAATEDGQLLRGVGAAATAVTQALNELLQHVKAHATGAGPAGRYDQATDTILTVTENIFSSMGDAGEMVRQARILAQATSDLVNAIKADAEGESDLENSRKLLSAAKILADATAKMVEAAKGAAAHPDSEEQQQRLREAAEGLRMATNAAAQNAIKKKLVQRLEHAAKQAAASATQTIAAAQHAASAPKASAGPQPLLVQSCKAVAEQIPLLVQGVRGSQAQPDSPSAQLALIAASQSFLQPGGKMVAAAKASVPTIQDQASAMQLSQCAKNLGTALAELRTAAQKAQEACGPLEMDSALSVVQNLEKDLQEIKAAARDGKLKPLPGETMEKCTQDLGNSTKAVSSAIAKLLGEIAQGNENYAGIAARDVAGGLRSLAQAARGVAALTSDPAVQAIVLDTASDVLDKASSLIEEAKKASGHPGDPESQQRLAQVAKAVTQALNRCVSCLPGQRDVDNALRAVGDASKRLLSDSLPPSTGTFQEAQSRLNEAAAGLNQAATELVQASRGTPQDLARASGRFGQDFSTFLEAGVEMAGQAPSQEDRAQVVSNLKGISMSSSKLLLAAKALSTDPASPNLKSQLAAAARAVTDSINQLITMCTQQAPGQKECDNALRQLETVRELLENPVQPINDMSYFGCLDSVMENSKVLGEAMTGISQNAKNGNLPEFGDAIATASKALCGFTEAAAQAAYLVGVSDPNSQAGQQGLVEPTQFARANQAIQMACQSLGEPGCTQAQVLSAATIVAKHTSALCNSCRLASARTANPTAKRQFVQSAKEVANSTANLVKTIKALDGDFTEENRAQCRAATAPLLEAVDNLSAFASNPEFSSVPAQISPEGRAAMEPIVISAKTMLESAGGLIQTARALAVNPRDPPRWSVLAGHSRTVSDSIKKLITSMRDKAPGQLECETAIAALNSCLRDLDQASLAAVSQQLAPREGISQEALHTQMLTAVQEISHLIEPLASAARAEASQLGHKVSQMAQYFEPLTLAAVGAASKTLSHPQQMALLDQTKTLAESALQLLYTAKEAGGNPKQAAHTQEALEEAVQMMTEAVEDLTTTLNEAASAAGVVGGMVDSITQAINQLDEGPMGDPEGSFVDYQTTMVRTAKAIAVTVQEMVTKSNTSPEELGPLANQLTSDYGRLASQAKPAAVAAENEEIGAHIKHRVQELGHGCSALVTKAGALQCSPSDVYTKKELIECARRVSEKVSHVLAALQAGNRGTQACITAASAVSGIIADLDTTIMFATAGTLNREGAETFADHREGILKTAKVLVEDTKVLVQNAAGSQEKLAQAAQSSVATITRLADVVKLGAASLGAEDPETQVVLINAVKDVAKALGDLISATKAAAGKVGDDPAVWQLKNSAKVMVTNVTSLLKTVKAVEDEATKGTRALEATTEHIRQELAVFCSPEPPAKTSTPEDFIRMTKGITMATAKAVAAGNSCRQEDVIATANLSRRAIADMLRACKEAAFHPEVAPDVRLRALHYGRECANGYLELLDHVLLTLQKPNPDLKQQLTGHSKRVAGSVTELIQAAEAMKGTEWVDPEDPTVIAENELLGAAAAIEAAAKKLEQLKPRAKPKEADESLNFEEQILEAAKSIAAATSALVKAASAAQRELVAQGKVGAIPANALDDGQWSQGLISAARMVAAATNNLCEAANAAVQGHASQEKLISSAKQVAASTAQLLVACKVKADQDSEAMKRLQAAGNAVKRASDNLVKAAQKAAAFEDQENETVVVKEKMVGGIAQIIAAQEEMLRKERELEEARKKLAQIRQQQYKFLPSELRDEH

Molecule: pertussis toxin
CD11b+ cell adhesion to endothelium [1]: inhibited SDF-1α, and TCM-induced but not IL-1β induced adhesion | integrin α4 clustering (integrin α4): blocked SDF-1α-induced integrin clustering

Molecule: B1
binding result [2]: no binding | binding result [3]: binds

Molecule: B2
binding result [4]: no binding
